Experimental data published in patent US20220324993A1 (EXCELMAB, published 2022).
Positions count from the first letter of the chain named. In names and notes the source's numbering stands.

B1: CD20×CD3 BsAb V1 (bispecific antibody, human IgG1, kappa, L234A L235A)
heavy 1: EVQLVESGGGLVQPGRSLRLSCAASGFTFNDYAMHWVRQAPGKGLEWVSTISWNSGSIGYADSVKGRFTISRDNAKKSLYLQMNSLRAEDTALYYCAKDIQYGNYYYGMDVWGQGTTVTVSSASTKGPSVFPCAPSSKSTSGGTAALGCLVKDYFPEPVTVSWNSGALTSGVHTFPAVLQSSGLYSLSSVVTVPSSSLGTQTYICNVNHKPSNTKVDKKVEPKSSDKTHTCPPCPAPEAAGGPSVFLFPPKPKDTLMISRTPEVTCVVVDVSHEDPEVKFNWYVDGVEVHNAKTKPREEQYNSTYRVVSVLTVLHQDWLNGKEYKCKVSNKALPAPIEKTISKAKGQPREPQVYTLPPSREEMTKNQVSLTCLVKGFYPSDIAVEWESNGQPENNYKTDDDVLDSDGSFFLYSKLTVDKSRWQQGNVFSCSVMHEALHNHYTQKSLSLSPGK
light 1: not shown
heavy 2: EVQLVESGGGLVQPGGSLKLSCAASGFTFNTYAMNWVRQAPGKGLEWVARIRSKYNNYATYYADSVKDRFTISRDDSKNTAYLQMNNLKTEDTAMYYCVRHGNFGNSYVSWFAYWGQGTLVTVSSASTKGPSVFPLAPSSKSTSGGTAALGCLVKDYFPEPVTVSWNSGALTSGVHTFPAVLQSSGLYSLSSVVTVPSSSLGTQTYICNVNHKPSNTKVDKKVEPKSCDKTHTCPPCPAPEAAGGPSVFLFPPKPKDTLMISRTPEVTCVVVDVSHEDPEVKFNWYVDGVEVHNAKTKPREEQYNSTYRVVSVLTVLHQDWLNGKEYKCKVSNKALPAPIEKTISKAKGQPREPQVYTLPPSRDELTKNQVSLTCLVKGFYPSDIAVEWESNGQPENNYKTTKKKLDSDGSFFLYSKLTVDKSRWQQGNVFSCSVMHEALHNHYTQKSLSLSPGK
light 2: DIQMTQEPSLTTSPGGTVTLTCRSSTGAVTTSNYANWVQEKPGQAPRGLIGGTNKRAPGTPARFSGSLIGGKAALTITGVQPEDEAIYFCALWYSNLWVFGGGTKLEIKRTVAAPSVFIFPPSDEQLKSGTASVVCLLNNFYPREAKVQWKVDNALQSGNSQESVTEQDSKDSTYSLSSTLTLSKADYEKHKVYACEVTHQGLSSPVTKSFNRGEC
notes: Four-chain IgG-like bispecific antibody with a heterodimeric Fc; The anti-CD20 arm is derived from Ofatumumab; the anti-CD3 arm is a humanized murine antibody without the N106T mutation; Expressed in HEK293 cells behind an IL-2 signal peptide supplied by the plasmid; also called CD20×CD3 bispecific antibody V1
B2: CD20×CD3 BsAb V2 (bispecific antibody, human IgG1, kappa, L234A L235A)
heavy 1: B1 heavy 1
light 1: not shown
heavy 2: B1 heavy 2 with N106T
light 2: B1 light 2
notes: also called CD20×CD3 bispecific antibody V2

Legend:
[1] = target: T1, CD20 on Raji cells (CD20+/CD3-) (human, UniProt P11836 1-297); experiment: cell-based or functional assay
T1 sequence (looked up): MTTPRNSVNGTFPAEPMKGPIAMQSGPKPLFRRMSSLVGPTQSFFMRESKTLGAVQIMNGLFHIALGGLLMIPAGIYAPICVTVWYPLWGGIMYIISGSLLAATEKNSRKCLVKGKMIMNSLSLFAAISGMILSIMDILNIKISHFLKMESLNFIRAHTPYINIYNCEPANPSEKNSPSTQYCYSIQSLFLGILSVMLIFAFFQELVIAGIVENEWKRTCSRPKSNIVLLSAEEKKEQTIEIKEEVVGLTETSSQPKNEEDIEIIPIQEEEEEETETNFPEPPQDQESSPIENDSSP

[2] = target: T2, CD3 antigen: 1:1 mixture of human CD3 e protein and human CD3 d protein (Sino Biological Inc.) (human, UniProt P07766 23-126; P04234 22-105); experiment: ELISA, CD3 e/d mixture coated, anti-human IgG-HRP detection
T2 construct: Bought recombinant proteins, mixed 1:1 and coated on the ELISA plate; also called antigen CD3
T2 sequence (P07766 23-126 limits assumed, chain 1 of 2): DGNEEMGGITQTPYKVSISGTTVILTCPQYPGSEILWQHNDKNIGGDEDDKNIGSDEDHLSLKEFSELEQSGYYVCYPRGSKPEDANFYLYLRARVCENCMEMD
T2 sequence (P04234 22-105 limits assumed, chain 2 of 2): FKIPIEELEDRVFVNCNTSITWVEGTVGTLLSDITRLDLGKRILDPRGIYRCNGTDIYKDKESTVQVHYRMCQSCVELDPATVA
Experimental: 4) Addition of Samples: the bispecific antibody sample was diluted with PBS to 10 μg/ml and then subjected to a 4-fold gradient dilution at a total of eight concentrations. The diluted samples were added at 100 μL/well, and two replicate wells were used for each antibody concentration. The reaction wells were sealed with a plate sealing film and incubated at room temperature for 1.5 hours. The plate was washed 5 times with 0.05% PBST.
5) Addition of Secondary Antibody: HRP-labeled Goat Anti-Human IgG (H+L) (purchased from Proteintech company, product catalog No. SA00001-17) was diluted with PBS at a ratio of 1:2000 and added in a volume of 100 μL to each well. The reaction wells were sealed with a plate sealing film and incubated at room temperature for 1 hour. The plate was washed 5 times with 0.05% PBST.
7) Stopping: 50 μL of a stop solution (1 M HCl) was added to each well to stop the chromogenic reaction. After 3 min, the OD value of the reaction solution in each well was read at 450 nm on a microplate reader.

Binder | ADCC activity to kill target tumor cells (Raji and Daudi cells), EC50 [1] [ng/mL] | killing of Raji cells by hPBMCs (LDH release), EC50 [1] [ng/mL] | EC50 [2] [ng/mL]
B1 | 0.2 | 0.21 | 818
B2 | 0.2 | 0.24 | 2100
